Source: patent US20200299347A1 (Merck KGaA, published 2020)

Experiments:
FGFR3 = experiment: cell-based or functional assay
NGF = experiment: cell-based or functional assay
Chain of NGF (P01138 122-241): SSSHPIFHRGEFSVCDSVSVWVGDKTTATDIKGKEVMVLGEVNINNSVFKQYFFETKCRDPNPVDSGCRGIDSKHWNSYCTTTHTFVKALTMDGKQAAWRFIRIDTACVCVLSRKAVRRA

| Binder | FGF18 EC50 (nM), BaF3/FGFR3 assay; construct from expiCHO-S (FGFR3) [nM] | anti-NGF IC50 (nM), U2OS TrkA_p75 assay; construct from expiCHO-S (NGF) [nM] |
| --- | --- | --- |
| FGF18 SEED (HO110) (other) EPKSSDKTHTCPPCPAPEAAGGPSVFLFPPKPKDTLMISRTPEVTCVVVDVSHEDPEVKFNWYVDGVEVHNAKTKPREEQYNSTYRVVSVLTVLHQDWLNGKEYKCKVSNKALGAPIEKTISKAKGQPREPQVYTLPPPSEELALNELVTLTCLVKGFYPSDIAVEWLQGSQELPREKYLTWAPVLDSDGSFFLYSILRVAAEDWKKGDTFSCSVMHEALHNRFTQKSLDRSPGKEPKSSDKTHTEENVDFRIHVENQTRARDDVSRKQLRLYQLYSRTSGKHIQVLGRRISARGEDGDKYAQLLVETDTFGSQVRIKGKETEFYLCMNRKGKLVGKPDGTSKECVFIEKVLENNYTALMSAKYSGWYVGFTKKGRPRKGPKTRENQQDVHFMKRYPKGQPELQKPFKYTTVTK heavy: QVQLQESGPGLVKPSETLSLTCTVSGFSLIGYDLNWIRQPPGKGLEWIGIIWGDGTTDYNSAVKSRVTISKDTSKNQFSLKLSSVTAADTAVYYCARGGYWYATSYYFDYWGQGTLVTVSSASTKGPSVFPLAPSSKSTSGGTAALGCLVKDYFPEPVTVSWNSGALTSGVHTFPAVLQSSGLYSLSSVVTVPSSSLGTQTYICNVNHKPSNTKVDKKVEPKSCDKTHTCPPCPAPEAAGGPSVFLFPPKPKDTLMISRTPEVTCVVVDVSHEDPEVKFNWYVDGVEVHNAKTKPREEQYNSTYRVVSVLTVLHQDWLNGKEYKCKVSNKALGAPIEKTISKAKGQPREPQVYTLPPPSEELALNELVTLTCLVKGFYPSDIAVEWLQGSQELPREKYLTWAPVLDSDGSFFLYSILRVAAEDWKKGDTFSCSVMHEALHNRFTQKSLDRSPGK light: not shown | 0.02 | 0.89 |
| FGF18 SEED (HO113) (other) EPKSSDKTHTCPPCPAPEAAGGPSVFLFPPKPKDTLMISRTPEVTCVVVDVSHEDPEVKFNWYVDGVEVHNAKTKPREEQYNSTYRVVSVLTVLHQDWLNGKEYKCKVSNKALGAPIEKTISKAKGQPREPQVYTLPPPSEELALNELVTLTCLVKGFYPSDIAVEWLQGSQELPREKYLTWAPVLDSDGSFFLYSILRVAAEDWKKGDTFSCSVMHEALHNRFTQKSLDRSPGKGGGGSEPKSSDKTHTGGGGSEENVDFRIHVENQTRARDDVSRKQLRLYQLYSRTSGKHIQVLGRRISARGEDGDKYAQLLVETDTFGSQVRIKGKETEFYLCMNRKGKLVGKPDGTSKECVFIEKVLENNYTALMSAKYSGWYVGFTKKGRPRKGPKTRENQQDVHFMKRYPKGQPELQKPFKYTTVTKRSRRIRPTHPA heavy: QVQLQESGPGLVKPSETLSLTCTVSGFSLIGYDLNWIRQPPGKGLEWIGIIWGDGTTDYNSAVKSRVTISKDTSKNQFSLKLSSVTAADTAVYYCARGGYWYATSYYFDYWGQGTLVTVSSASTKGPSVFPLAPSSKSTSGGTAALGCLVKDYFPEPVTVSWNSGALTSGVHTFPAVLQSSGLYSLSSVVTVPSSSLGTQTYICNVNHKPSNTKVDKKVEPKSCDKTHTCPPCPAPEAAGGPSVFLFPPKPKDTLMISRTPEVTCVVVDVSHEDPEVKFNWYVDGVEVHNAKTKPREEQYNSTYRVVSVLTVLHQDWLNGKEYKCKVSNKALGAPIEKTISKAKGQPREPQVYTLPPPSEELALNELVTLTCLVKGFYPSDIAVEWLQGSQELPREKYLTWAPVLDSDGSFFLYSILRVAAEDWKKGDTFSCSVMHEALHNRFTQKSLDRSPGK light: not shown | 0.1 | 0.95 |
| FGF18 SEED (HO114) (other) heavy: QVQLQESGPGLVKPSETLSLTCTVSGFSLIGYDLNWIRQPPGKGLEWIGIIWGDGTTDYNSAVKSRVTISKDTSKNQFSLKLSSVTAADTAVYYCARGGYWYATSYYFDYWGQGTLVTVSSASTKGPSVFPLAPSSKSTSGGTAALGCLVKDYFPEPVTVSWNSGALTSGVHTFPAVLQSSGLYSLSSVVTVPSSSLGTQTYICNVNHKPSNTKVDKKVEPKSCDKTHTCPPCPAPEAAGGPSVFLFPPKPKDTLMISRTPEVTCVVVDVSHEDPEVKFNWYVDGVEVHNAKTKPREEQYNSTYRVVSVLTVLHQDWLNGKEYKCKVSNKALGAPIEKTISKAKGQPFRPEVHLLPPSREEMTKNQVSLTCLARGFYPKDIAVEWESNGQPENNYKTTPSRQEPSQGTTTFAVTSKLTVDKSRWQQGNVFSCSVMHEALHNHYTQKTISLSPGK EPKSSDKTHTCPPCPAPEAAGGPSVFLFPPKPKDTLMISRTPEVTCVVVDVSHEDPEVKFNWYVDGVEVHNAKTKPREEQYNSTYRVVSVLTVLHQDWLNGKEYKCKVSNKALGAPIEKTISKAKGQPREPQVYTLPPPSEELALNELVTLTCLVKGFYPSDIAVEWLQGSQELPREKYLTWAPVLDSDGSFFLYSILRVAAEDWKKGDTFSCSVMHEALHNRFTQKSLDRSPGK light: not shown | 0.02 | 0.88 |

Results, then the binder that gave them:

| FGF18 EC50 (nM), BaF3/FGFR3 assay; construct from expiCHO-S (FGFR3) [nM] | anti-NGF IC50 (nM), U2OS TrkA_p75 assay; construct from expiCHO-S (NGF) [nM] | Binder |
| --- | --- | --- |
| 0.05 | 0.98 | FGF18 SEED (HOF3) (other) light: not shown heavy: QVQLQESGPGLVKPSETLSLTCTVSGFSLIGYDLNWIRQPPGKGLEWIGIIWGDGTTDYNSAVKSRVTISKDTSKNQFSLKLSSVTAADTAVYYCARGGYWYATSYYFDYWGQGTLVTVSSASTKGPSVFPLAPSSKSTSGGTAALGCLVKDYFPEPVTVSWNSGALTSGVHTFPAVLQSSGLYSLSSVVTVPSSSLGTQTYICNVNHKPSNTKVDKKVEPKSC |
| 0.14 | 0.29 | FGF18 SEED fasinumab (SEED-A) (other) EENVDFRIHVENQTRARDDVSRKQLRLYQLYSRTSGKHIQVLGRRISARGEDGDKYAQLLVETDTFGSQVRIKGKETEFYLCMNRKGKLVGKPDGTSKECVFIEKVLENNYTALMSAKYSGWYVGFTKKGRPRKGPKTRENQQDVHFMKRYPKGQPELQKPFKYTTVTKGGGGSGGGGSDKTHTCPPCPAPEAAGGPSVFLFPPKPKDTLMISRTPEVTCVVVDVSHEDPEVKFNWYVDGVEVHNAKTKPREEQYNSTYRVVSVLTVLHQDWLNGKEYKCKVSNKALPAPIEKTISKAKGQPFRPEVHLLPPSREEMTKNQVSLTCLARGFYPKDIAVEWESNGQPENNYKTTPSRQEPSQGTTTFAVTSKLTVDKSRWQQGNVFSCSVMHEALHNHYTQKTISLSPGK heavy: QVQLVQSGAEVKKPGASVKVSCKVSGFTLTELSIHWVRQAPGKGLEWMGGFDPEDGETIYAQKFQGRVTMTEDTSTDTAYMELTSLRSEDTAVYYCSTIFGVVTNFDNWGQGTLVTVSSASTKGPSVFPLAPSSKSTSGGTAALGCLVKDYFPEPVTVSWNSGALTSGVHTFPAVLQSSGLYSLSSVVTVPSSSLGTQTYICNVNHKPSNTKVDKKVEPKSCDKTHTCPPCPAPEAAGGPSVFLFPPKPKDTLMISRTPEVTCVVVDVSHEDPEVKFNWYVDGVEVHNAKTKPREEQYNSTYRVVSVLTVLHQDWLNGKEYKCKVSNKALPAPIEKTISKAKGQPREPQVYTLPPPSEELALNELVTLTCLVKGFYPSDIAVEWLQGSQELPREKYLTWAPVLDSDGSFFLYSILRVAAEDWKKGDTFSCSVMHEALHNRFTQKSLDRSPGK light: DIQMTQSPSSLSASAGDRVTITCRASQAIRNDLGWYQQKPGKAPKRLIYAAFNLQSGVPSRFSGSGSGTEFTLTISSLQPEDLASYYCQQYNRYPWTFGQGTKVEIKRTVAAPSVFIFPPSDEQLKSGTASVVCLLNNFYPREAKVQWKVDNALQSGNSQESVTEQDSKDSTYSLSSTLTLSKADYEKHKVYACEVTHQGLSSPVTKSFNRGEC |
| 0.06 | 0.25 | FGF18 SEED fulranumab (SEED-B) (other) EENVDFRIHVENQTRARDDVSRKQLRLYQLYSRTSGKHIQVLGRRISARGEDGDKYAQLLVETDTFGSQVRIKGKETEFYLCMNRKGKLVGKPDGTSKECVFIEKVLENNYTALMSAKYSGWYVGFTKKGRPRKGPKTRENQQDVHFMKRYPKGQPELQKPFKYTTVTKGGGGSGGGGSDKTHTCPPCPAPEAAGGPSVFLFPPKPKDTLMISRTPEVTCVVVDVSHEDPEVKFNWYVDGVEVHNAKTKPREEQYNSTYRVVSVLTVLHQDWLNGKEYKCKVSNKALPAPIEKTISKAKGQPFRPEVHLLPPSREEMTKNQVSLTCLARGFYPKDIAVEWESNGQPENNYKTTPSRQEPSQGTTTFAVTSKLTVDKSRWQQGNVFSCSVMHEALHNHYTQKTISLSPGK heavy: EVQLVESGGGLVQPGGSLRLSCAASGFTLRSYSMNWVRQAPGKGLEWVSYISRSSHTIFYADSVKGRFTISRDNAKNSLYLQMDSLRDEDTAMYYCARVYSSGWHVSDYFDYWGQGILVTVSSASTKGPSVFPLAPSSKSTSGGTAALGCLVKDYFPEPVTVSWNSGALTSGVHTFPAVLQSSGLYSLSSVVTVPSSSLGTQTYICNVNHKPSNTKVDKKVEPKSCDKTHTCPPCPAPEAAGGPSVFLFPPKPKDTLMISRTPEVTCVVVDVSHEDPEVKFNWYVDGVEVHNAKTKPREEQYNSTYRVVSVLTVLHQDWLNGKEYKCKVSNKALPAPIEKTISKAKGQPREPQVYTLPPPSEELALNELVTLTCLVKGFYPSDIAVEWLQGSQELPREKYLTWAPVLDSDGSFFLYSILRVAAEDWKKGDTFSCSVMHEALHNRFTQKSLDRSPGK light: not shown |
| 0.07 | 0.89 | FGF18 SEED (HO124) (other) EENVDFRIHVENQTRARDDVSRKQLRLYQLYSRTSGKHIQVLGRRISARGEDGDKYAQLLVETDTFGSQVRIKGKETEFYLCMNRKGKLVGKPDGTSKECVFIEKVLENNYTALMSAKYSGWYVGFTKKGRPRKGPKTRENQQDVHFMKRYPKGQPELQKPFKYTTVTKGGSGGSGSGSEPKSSDKTHTCPPCPAPEAAGGPSVFLFPPKPKDTLMISRTPEVTCVVVDVSHEDPEVKFNWYVDGVEVHNAKTKPREEQYNSTYRVVSVLTVLHQDWLNGKEYKCKVSNKALGAPIEKTISKAKGQPREPQVYTLPPPSEELALNELVTLTCLVKGFYPSDIAVEWLQGSQELPREKYLTWAPVLDSDGSFFLYSILRVAAEDWKKGDTFSCSVMHEALHNRFTQKSLDRSPGK heavy: QVQLQESGPGLVKPSETLSLTCTVSGFSLIGYDLNWIRQPPGKGLEWIGIIWGDGTTDYNSAVKSRVTISKDTSKNQFSLKLSSVTAADTAVYYCARGGYWYATSYYFDYWGQGTLVTVSSASTKGPSVFPLAPSSKSTSGGTAALGCLVKDYFPEPVTVSWNSGALTSGVHTFPAVLQSSGLYSLSSVVTVPSSSLGTQTYICNVNHKPSNTKVDKKVEPKSCDKTHTCPPCPAPEAAGGPSVFLFPPKPKDTLMISRTPEVTCVVVDVSHEDPEVKFNWYVDGVEVHNAKTKPREEQYNSTYRVVSVLTVLHQDWLNGKEYKCKVSNKALGAPIEKTISKAKGQPFRPEVHLLPPSREEMTKNQVSLTCLARGFYPKDIAVEWESNGQPENNYKTTPSRQEPSQGTTTFAVTSKLTVDKSRWQQGNVFSCSVMHEALHNHYTQKTISLSPGK light: not shown |
